Assay results from patent publication US20260117244A1, “INHIBITORY RNA FOR THE CONTROL OF PHYTOPATHOGENS” (priority 2021, published 2026).

B1: 179 (nucleic acid, listed as Golovinomyces orontii)
chain: ATGCAGATCTCACGCATCACATTTATCTCTTTCTTCATCGCCCTTGTCGCGGCTCATCCAACTCTTAATGAACGACAAACAATTACCATCCCAAAAATTCCTGAAGTTCCAGCCGTCCCCGAAGTTCCCGCTGTTCCTGAAGTACAAAAGCGTCAACAGACGATAACTGTTCCCACGATCCCCACGATTCCTACCGTGCCAGATGTTCCTGCTGACACACGAATAAAGCTGTCCACAAACTCAATGGCTACGCCAAACTCTATGCTGGACAAGAGACCTGAAGTGTGGCATATCCATGATAACCGGATAACTGGTCGGAAAATATTCAAAGCTAAATGA
modifications: listed as DNA
B2: 169 (nucleic acid, listed as Golovinomyces orontii)
chain: ATGGATATGGATATGAATATGAGCACAGGAATGAATGCAAGTCCAATAATCGGAGGCAACGAAGTCCATTCACATCCAATGGATATGGGAAGGGATATGTCGATGACTTTTTTTAATGGCATGACAACTAAACTCTATACCTCGACGTGGGCACCAAAAAGTTTAGGCACTTATATAGCGACTTGTTTATTTCTCATCGCTTTATCCAGCATATCTAGGTTTCTATTAGCCGCCAAGTTATGGCTAGAAACAACTTGGATGAACGCTGAGCTCAATCGAAAATATGTTACGGCTGCTGGAAAAGTACCAATCTCAGAACAGATTTCAATGAAGTCTGAAGCTCGGCAAATGGTACTATCTGGAAATGGTTTTGAAGAAGATGTGATAGTCGTTCAAAAGAAAGGATTCCGTGTACGGCCCTGGAGTATTACTGTGGATCCAATCCGAGCGCTGATAGACACCACAATTATGGCAGTGGGATTATTAATAATGCTGGCCGTTATGACAATGAATATTGGGTATTTTATATCGGTTTTGATAGGCACATTTATTGGCAGCCTAGTTGTCGGGCGTTATTCTCCTGAATAA
modifications: listed as DNA
B3: EnLIP1: dsRNA against E. necator TAG lipase 1 (target SEQ ID NO:183) (nucleic acid)
chain: ATTAATACTGGTGCTGTACAGCGCCTATTACACATTAATGAGGACTGTTTAACTGTCACTGTTCAAAAACCATCATATGCGACTCCCGACTCTAAGTTTCCTGTCGTGTTCTCTCTATTTTTTGGAGGGTTTGGTTTTGGTTCAACGGCAATATATGATGCCTCTAAACTTATTCAAGCAGGTATCAATGCAGGTAAACCTATCGTCTACGTTGCTGTAAATTATCGTTTGGGTGCATTTGGATGGCTTGGAGGAAGAGAAATTAAAGAGGCAGGTCTCGCTAATCTTGGCCATTACG
modifications: misc_feature 1..298: note = Inhibitory double stranded RNA; listed as RNA
B4: 181 (nucleic acid, listed as Golovinomyces orontii)
chain: ATGTCTAATCAGCTAAAACATCCCTCTTTACTCATTCCAGGCCCCGTTGAGATTGACGATGCTGTCCTTCACTCTATGAGCCATCACAGATCCTCATCTTACTGCAGTGAGAGCCATGTGGACATATCGTTTATAAAAACTTTTGGAAAAACGTTGTACATGCTCAGGAAGCTATTCCAATCTAATGATCCTTACTCTCAACCATTCGTAATTTCCGGATCTGGTACCCTAGGATGGGATCTAGTAGCCGCAAATTTAGCGGAACGCGGTGATGATGTCTTAGTATTACACACGGGTTACTTTGCAGACTCTTTCTCCGATTGCTTTGAGACCTACGGGATAAACGTCACACAGCTTATAGCTCCGATTGGTTCAAGACCCCAACTAATAGAGATTGAAGAAGAATTATCAAAAAAGACCTACAAACTTCTAACAGTGACCCATGTCGATACCTCGACTGGCGTATTAAATGAACTGGAGCCAATTTCAGAAATAGTTCATCGGGTTTCTCCTGAGACCCTTGTAATTGTTGATGGAGTGTGCAGTGTCGGGTCTGAGGAGATCGCTTTCGACTCCTGGAAACTCGATGGAGTTATCACTGCAAGCCAGAAAGCAATTGGTGCACCGGCTGGTCTTTCCATCTCAATTTTCAGTGGCCGTGCGATTCAGTCATTTAATGACCGACAGACTCCTCCTGGGTCTTACTATGCATCATTCAAGAATTGGATGCCTATCATGCAGAGCTATGAAGCCCAAGAGCCTTCATATTTTGCAACTCCATCCATTCATTTGATCCATGCACTTCACACCTCTTTAACGCAAATTCTCTCACGCCCTCTTTCAGAGCGGTTCACTATTCACAGAGAAATATCTCAAAGAGTAAAAGAAGCAGTTTCTGGAATGGGATTAACTCAGTTGGCTGCCAATCCTGAAAATCAAGCAAACGGAATGACAGCAATATATTTGCCAGATAATATTAAAGCGAAAGACCTTTTAACCAAGATACTTCAAAAAGGAGTTGTTCTTGCTGGTGGATTACATAAAGAAATTGCTCATAAGTATATTCGCTTTGGTCATATGGGGGTGAGCGTGACCAAGCCTGAAAGGGGTGATATTGAACGAGCTATCAAAGCTTTGGAGACAAGTCTTTCAGAGTTAGGATATCGTAGAGAGAAACAGTCTTAG
modifications: listed as DNA
B5: EnAPG9: dsRNA against E. necator Autophagy protein Apg9 (target SEQ ID NO:208) (nucleic acid, listed as Golovinomyces orontii)
chain: ATGCCGTCTATCCCCATCACTATCATTACTGGCTTTCTAGGGTCTGGTAAAACAACTCTCCTTCTCAATATTCTTCCTCAAATACTTGCCAAGAATCCGAAATATAAATTAGCGCTTCTCAAAAATGAATTTGGAGATTTGGCTGTCGATAGTCAACTTGCAGGCTCTTCTATCACTGGTGTTCGTGAGATTCTAAATGGCTGCATTTGCTGTAACCTCGTCGGCTCTCTCTCATCGGCCCTTGAGGAGCTCACAGAGAGTATTTCTCCCGACCGAATAGTGATTGAAACGTCTGGGTCAGCATTCCCTGCAACGCTAGCTATGGAGGTTAATCGACTAGCGCGGGAGACCCAGGGTAAATATGTTCTAGATGGTGTAGTGACTGTTATTGATGTCGAAAACTGGAAGGGATATGAAGATACTAGCTTTACCGCACGATTACAAGCTCGTTACACAGATCTTGTTGTTTTTAATAAGTGGGAGGATGTTGGTGAAAGGAGGTGGGACGAATGTTTAGATCGACTGGGTGATATGGAGGTTGAAATTCCATGGGTTAAGAGTCAGAGGGGATTTGTTGATATGGATATTATCTTTGGCCTTGATGGAGGACTAGCAAAAGAATTAGAGGGAGAAGTAGAGCAAGGCCTACATCAGCAAAAAAAAACGCACAAGGACGGCGAAAGTCACCAGAACGAGGTTGAGGTACTTTCTGTCACCCTTTCTAAAAAATCTGATATCTCCTCGACCATTACACGTCCGAATTCAGAGCTTACCCCAAAAATTGATACTGATGCTCTGCTGAAACTTCTCCAAACAGCACCCAAGGACGAGGTCTACCGGATAAAGTCAATCTTTACTTCTTCTACACCTATGCCTTCATCTACTCCTATATCATCTTCAGATCTATCAGAAACGCCAGTGTCTTCAGTTGCTGGCCCAAATAAATACATTCTAAATTGGTCATTTGGTCGCTGGACCTGCACACCTATGCCCTCCACTAATTCTTCAACCACAGGAGACAGCTTTGAGCACCCATCTAGCGAGGCCGTAGGTCAAGGAGAAGTTTTCCTTCGCATGATTATAATTCTCTCAAGAGGTGCTGGTAAGAAATGGAAAAAAAGACTTGAGGATGGAGGTTTTATACGTTTCAAGGGTGTGGCCGGAACCGACGTACAGAATTTAAATGTTGTTCCCATCAGTTAA
modifications: listed as DNA

How the values were obtained:
G. orontii MGH1 = assay: Spray-induced gene silencing (SIGS), G. orontii spore production on A. thaliana (whole plant and detached leaf assays); type: in vivo, Golovinomyces orontii; conditions: topical dsRNA against G. orontii target (Gor Seq ID), n>=3
[1] = test system: grapevine powdery mildew E. necator; assay: Vineyard field trials of topical dsRNA: powdery mildew disease incidence and disease severity (Kearney and Armstrong sites); type: in vivo, Erysiphe necator; conditions: for powdery mildew disease incidence: Chenin Blanc, 3 weeks after end of treatments (June 23), untreated ~80%; for mean disease severity (percent of berries with powdery mildew per bunch): June 28, almost 4 weeks post dsRNA treatment, untreated 12%
Experimental: The tests were done at Kearney Agriculture Research and Extension Center, Parlier, CA (Fresno County) and Armstrong Plant Pathology Field Station at University of California, Davis, CA. Susceptible grapevine cultivars were tested—Sauvignon Blanc at Kearney and Chenin Blanc at Davis. In both cases, the Stihl backpack sprayer SR450 was used and sprayer calibration, and normalization was performed to ensure equal doses of treatment applied to each replicate. During the trial period, vines were irrigated by drip irrigation and the regular maintenance of weeding, herbicide and insecticide treatments were done by the Kearney or Davis site field staff. In early season, 2.0 gallons/5 replicates and in mid to late season 2.5 to 3.0 gallons/5 replicates were sprayed. All appropriate personal protective equipment (PPE) was used and required training was completed including pesticide application training and heat exhaustion training. A randomized block design was used with 5 replicates for each treatment. Two adjacent vines were used as one experimental unit and the area between two trunks (yellow box) was sprayed and assessed (FIG. 16).
The trial was conducted at Kearney Agricultural Research and Extension Center, Parlier, CA on blocks of the susceptible white wine variety Sauvignon Blanc. Total of 5 different gene targets from grapevine powdery mildew E. necator, EnCYP51 (SEQ ID NO:182), EnLIP1 (SEQ ID NO:183), EnICL2 (SEQ ID NO:186), EnMS (SEQ ID NO:188) and EnAPG9 (SEQ ID NO:208) were tested at this site by backpack spraying of the experimental units with dsRNA designed specifically against these target genes. The treatments were placed in a randomized block design with 5 replicates of each (dsRNA treatments 1-5), 5 replicates of Gold Standard (GS) and 5 replicates of untreated control (UT Control). Gold Standard refers to the pesticides normally used by growers to control powdery mildew: Sulfur and other chemical fungicides such as Rally, Quintec, and Luna. Between each treatment replicate, consisting of two vines, there was a spacer vine to avoid the spray drift from one treatment another.
FIG. 17 provides an overview of the treatment schedule at Kearney. A total of 4 treatments of dsRNA were performed between May and July, replacing the 4 final treatments of the GS. Data were collected at the times marked by the gray dots in FIG. 17. The monitoring of powdery mildew index data and manual scouting of disease in the field was used to adjust timing schedule per standard protocol (www2.ipm.ucanr.edu/weather/grape-powdery-mildew-risk-assessment-index/?src=redirect2refresh).
The total number of bunches per replicate (mean of 130) and the bunches with powdery mildew growth were counted and percent of infected bunches per replicate was calculated.
Disease severity was calculated by counting the number of infected berries compared to total berries in a bunch. 25 bunches from both sides of the canopy were assessed per replicate.
This trial was conducted at University of California Davis Plant Pathology Armstrong Facility on white wine variety Chenin Blanc. A total of 4 different gene targets from grapevine powdery mildew E. necator, EnLIP1 (Seq ID No:183), EnICL2 (Seq ID 186), EnMS (Seq ID No:188) and EnAPG9 (Seq ID No:208) were tested at this site by treating the vines with dsRNA designed against these target genes. A randomized block design with 5 replicates of each (treatments 1-5) and 5 replicates of untreated control (UT Control) was utilized. Spray protocols and spray volumes were the same as done by Akif Eskalen's team as shown on this link (Elfar et al. 2021, ucanr.edu/sites/eskalenlab/files/355630.pdf) and in Table 10. Eskalen's lab performed 3rd party commercial fungicide trials for the industry.
In this field trial, a total of 3 sprays of dsRNA were performed between May and early June (FIG. 21). For the dsRNA treatments, no parallel chemical treatments were performed prior to the dsRNA treatments. […]

| Molecule | G. orontii Spore Production on Arabidopsis, Detached Leaf Assay, % reduction (G. orontii MGH1) | powdery mildew disease incidence ([1]; Armstrong site) | mean disease severity (percent of berries with powdery mildew per bunch) ([1]; Armstrong site) | also measured |
| --- | --- | --- | --- | --- |
| B1 | – | – | – | G. orontii Spore Production on Arabidopsis, Whole Plant Assay, % reduction (G. orontii MGH1; whole plant assay): 41% |
| B2 | 54% | – | – | – |
| B3 | – | ~20% | 1% | – |
| B4 | 62% | – | – | – |
| B5 | – | ~20% | 1% | fold by which average disease incidence of untreated control increases faster than that of the dsRNA treatment (slopes) ([1]; Armstrong site, FIG. 22 panel B): 2.74 fold; mean disease incidence ([1]; Armstrong site, July 16, more than six weeks after dsRNA treatments): 24%; powdery mildew infection / disease in vineyard ([1]; topical spraying, vineyard field trials 2021, trial sites in California): effective |
